# From paper PMC12364711
# Target: superGmFLS2, C-terminal mEGFP (soybean (Glycine max))
substance,measurement,value
"NbBAK1 (BRASSINOSTEROID … 1-ASSOCIATED KINASE 1 of Nicotiana benthamiana), C-terminal 4xHA (receptor)","total flg22^Rso-induced ROS production in N. benthamiana fls2 leaves, against wild-type GmFLS2b",> 3 fold
